Test results as given in patent publication US20180043014A1.

Assays:
[1] = biological target: GPNMB (CG56972) on the surface of human tumor cell lines (human) (UniProt Q14956); test: flow cytometry, SKMEL2 cells, untreated; background control
[2] = biological target: GPNMB (CG56972) on the surface of human tumor cell lines (human) (UniProt Q14956); test: flow cytometry, WM2664 cells, untreated; background control
[3] = biological target: GPNMB (CG56972) on the surface of human tumor cell lines (human) (UniProt Q14956); test: flow cytometry, A375 cells, untreated, 12 h; background control
[4] = biological target: GPNMB (CG56972) on the surface of human tumor cell lines (human) (UniProt Q14956); test: flow cytometry, A375 cells, untreated, 24 h; background control
[5] = biological target: GPNMB (CG56972) on the surface of human tumor cell lines (human) (UniProt Q14956); test: flow cytometry, A375 cells, untreated, 48 h; background control
[6] = biological target: GPNMB (CG56972) on the surface of human tumor cell lines (human) (UniProt Q14956); test: flow cytometry, SF539 (printed SF549) cells, untreated, 12 h; background control
[7] = biological target: GPNMB (CG56972) on the surface of human tumor cell lines (human) (UniProt Q14956); test: flow cytometry, SF539 (printed SF549) cells, untreated, 24 h; background control
[8] = biological target: GPNMB (CG56972) on the surface of human tumor cell lines (human) (UniProt Q14956); test: flow cytometry, SF539 (printed SF549) cells, untreated, 48 h; background control
[9] = biological target: GPNMB (CG56972) on the surface of human tumor cell lines (human) (UniProt Q14956); test: flow cytometry on intact, non-permeabilized A375 melanoma cells, Treatment: None; primary antibody 10 ug/mL per methods, geometric mean fluorescence intensity

GPNMB (CG56972) on the surface of human tumor cell lines (human), sequence (Q14956 23-492): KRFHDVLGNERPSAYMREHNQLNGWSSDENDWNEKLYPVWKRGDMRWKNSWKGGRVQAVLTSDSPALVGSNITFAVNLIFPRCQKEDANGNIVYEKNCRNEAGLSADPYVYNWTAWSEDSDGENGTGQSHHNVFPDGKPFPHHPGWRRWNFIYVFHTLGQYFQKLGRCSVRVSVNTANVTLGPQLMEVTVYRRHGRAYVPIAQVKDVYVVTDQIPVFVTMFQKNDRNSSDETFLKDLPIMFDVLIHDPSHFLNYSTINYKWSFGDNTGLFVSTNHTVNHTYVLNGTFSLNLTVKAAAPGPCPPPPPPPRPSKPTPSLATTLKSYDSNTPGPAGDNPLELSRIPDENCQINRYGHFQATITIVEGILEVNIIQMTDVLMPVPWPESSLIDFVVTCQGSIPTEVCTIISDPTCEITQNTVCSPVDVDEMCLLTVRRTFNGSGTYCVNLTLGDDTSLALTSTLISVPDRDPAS

- GeoMean [1]: 6.9
- GeoMean [2]: 7.3
- GeoMean [3]: 7.4
- GeoMean [4]: 7.5
- GeoMean [5]: 7.8
- GeoMean [6]: 8.2
- GeoMean [7]: 8.7
- GeoMean [8]: 9.5
- GeoMean [9]: 8.4
Substance: unrelated human IgG2 isotype control monoclonal antibody
